This note sets out measurements from patent US8409577 (EMERGENT PRODUCT DEVELOPMENT SEATTLE, dated 2013).

The target of the assay is T1, CD20 (human, UniProt P11836 1-297).
T1 construct: whole, on cells; target on WIL2-S (WIL-2S), Ramos and BJAB cells; also called human CD20
T1 sequence (looked up): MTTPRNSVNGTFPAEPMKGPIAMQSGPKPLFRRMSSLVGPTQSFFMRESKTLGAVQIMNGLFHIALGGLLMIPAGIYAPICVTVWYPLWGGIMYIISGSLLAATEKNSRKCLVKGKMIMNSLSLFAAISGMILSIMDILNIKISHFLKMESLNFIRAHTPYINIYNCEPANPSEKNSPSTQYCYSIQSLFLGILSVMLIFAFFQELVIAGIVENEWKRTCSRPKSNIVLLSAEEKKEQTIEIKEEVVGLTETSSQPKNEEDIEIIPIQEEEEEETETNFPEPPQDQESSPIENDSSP
As to the kind of experiment: flow cytometry: 2e12 HL SMIP on WIL-2S cells (CD20), then CD28mIgG 5 ug/ml and FITC anti-mouse 1:100. How it is done:
In this case, the fusion proteins were first bound to WIL-2S CD20 expressing cells, and binding was then detected with CD28mIgG (5 µg/ml) and FITC anti-mouse reagent at 1:100.

B1: 2E12IgG-VHVL SMIP (Fc fusion)
chain: VQVQLKESGPGLVAPSQSLSITCTVSGFSLTGYGVNWVRQPPGKGLEWLGMIWGDGSTDYNSALKSRLSITKDNSKSQVFLKMNSLQTDDTARYYCARDGYSNFHYYVMDYWGQGTSVTVSSGGGGSGGGGSGGGGSGGGGSDIVLTQSPASLAVSLGQRATISCRASESVEYYVTSLMQWYQQKPGQPPKLLISAASNVESGVPARFSGSGSGTDFSLNIHPVEEDDIAMYFCQQSRKVPWTFGGGTKLEIKR
notes: also called 2e12 VHVL SMIP; 2e12 HL SMIP; not shown: IgG hinge-CH2-CH3 of the SMIP, not described
As to B1, the binding result is recorded as “no binding (tested: about 5 ug/mL (read off the axis))”.
